Laboratory results reported in patent US20150093398A1, “Methods and Compositions for Treating or Preventing Cancer” (MERCK SHARP & DOHME CORP., priority 2005, published 2015).

How the values were obtained:
[1] = system: SJSA-1 osteosarcoma cells; assay: SJSA-1 osteosarcoma xenograft model (05-IGFR-21), dosing from 15 days after inoculation; type: in vivo, female nude mouse (strain NU/NU)
Description: Xenograft tumor size was measured twice per week with a caliper and captured electronically by the LabCat program. […] For the experiments set forth in Table 9, dosing was initiated 15 days after inoculation. […] Xenograft tumor size was measured twice per week with a caliper and captured electronically by the LabCat program.

[2] = system: SJCRH30 rhabdomyosarcoma cells; assay: SJCRH30 rhabdomyosarcoma xenograft tumor growth in mice (05 IGFR-01, 19D12 and Cytoxan); type: in vivo, Athymic nude mice
Description: (§1) Athymic nude mice were inoculated with tumor cells in the right flank, subcutaneously, along with Matrigel (1:1 cells:gel). In these experiments, 5×10^6 cells/mouse in a 1:1 mix with regular matrigel were inoculated subcutaneously. Tumor size was measured with calipers and the data was entered into the labcat program. Mice were grouped with average size of 100 mm^3. Tumor size and body weight were measured twice weekly.
(§2) In these experiments, mice were dosed twice per week, intraperitoneally (i.p.) with antibody 19D12 and chemotherapeutic agents at the indicated frequency. Tumor size and mouse body weight was measured twice weekly after treatment.

[3] = system: SK-N-MC neuroblastoma cells; assay: SK-N-MC neuroblastoma xenograft tumor growth in mice (04 IGFR-13, 19D12 vs. Cisplatin); type: in vivo, Athymic nude mice
[4] = system: SJSA-1 osteosarcoma cells; assay: SJSA-1 osteosarcoma xenograft model (05-IGFR-12), dosing from day 18 post inoculation; type: in vivo, female nude mouse (strain NU/NU)
Description: About 7 million SJSA-1 osteosarcoma cells were inoculated subcutaneously to the flank of each female nude mouse (strain NU/NU from Charles River, age ˜6 wks-old, average weight ˜20 gram). For the experiment set forth in Table 8, dosing was initiated on day 18 post inoculation, when the xenograft tumor reached an average size of about 100 mm^3. Anti-IGF1R antibody (19D12 Light chain F/Heavy chain A (as set forth above)) was given ip twice a week at the dose of either 0.02 mg, 0.1 and 0.5 mg per mouse, while cytotoxic Cytoxan (cyclophosphamide) was given ip twice per week at the dose of 100 mpk for a total of 3 injection during the course of the study. Xenograft tumor size was measured twice per week with a caliper and captured electronically by the LabCat program.

[5] = system: SK-N-FI neuroblastoma cells; assay: SK-N-FI neuroblastoma xenograft tumor growth in mice (04 IGFR-20); type: in vivo, Athymic nude mice
[6] = system: SK-N-AS neuroblatoma cells; assay: SK-N-AS neuroblastoma xenograft tumor growth in mice (03 IGFR-09, 19D12 vs. Cytoxan); type: in vivo, Athymic nude mice
Description: as §1, §2

B1: 19D12: anti-IGF1R antibody: light chain variable region amino acids 20-128 of SEQ ID NO: 8, heavy chain variable region amino acids 20-137 of SEQ ID NO: 10 (antibody, V domains shown)
VL: MSPSQLIGFLLLWVPASRGEIVLTQSPGTLSVSPGERATLSCRASQSIGSSLHWYQQKPGQAPRLLIKYASQSLSGIPDRFSGSGSGTDFTLTISRLEPEDFAVYYCHQSSRLPHTFGQGTKVEIKRT
VH: MEFGLSWVFLVAILKGVQCEVQLVQSGGGLVKPGGSLRLSCAASGFTFSSFAMHWVRQAPGKGLEWISVIDTRGATYYADSVKGRFTISRDNAKNSLYLQMNSLRAEDTAVYYCARLGNFYYGMDVWGQGTTVTVSS
modifications: variable regions only: LC 20-128, HC 20-137; constant regions lack entries
Mean Tumor size ([1]; 0.04 mg 19D12, Day 0): 142 mm3 | Mean Tumor size ([1]; 0.04 mg 19D12, Day 4): 153 mm3 | Mean Tumor size ([1]; 0.04 mg 19D12, Day 7): 222 mm3 | Mean Tumor size ([1]; 0.04 mg 19D12, Day 11): 306 mm3 | Mean Tumor size ([1]; 0.04 mg 19D12, Day 14): 431 mm3 | Mean Tumor size ([1]; 0.1 mg 19D12, Day 0): 145 mm3 | Mean Tumor size ([1]; 0.1 mg 19D12, Day 4): 147 mm3 | Mean Tumor size ([1]; 0.1 mg 19D12, Day 7): 151 mm3 | Mean Tumor size ([1]; 0.1 mg 19D12, Day 11): 212 mm3 | Mean Tumor size ([1]; 0.1 mg 19D12, Day 14): 251 mm3 | regression of tumor volume (in words) ([1]; ip twice a week, 0.04 or 0.1 mg per mouse, with Cytoxan 50 or 100 mpk once a week, summary of Table 9): anti-IGF1R-dependent regression of tumor volume | Tumor Average Size ([2]; 0.02 mg 19D12, Day 0): 74 mm^3 | Tumor Average Size ([2]; 0.02 mg 19D12, Day 4): 144 mm^3 | Tumor Average Size ([2]; 0.02 mg 19D12, Day 7): 337 mm^3 | Tumor Average Size ([2]; 0.02 mg 19D12, Day 11): 534 mm^3 | Tumor Average Size ([2]; 0.02 mg 19D12, Day 14): 714 mm^3 | Tumor Average Size ([2]; 0.02 mg 19D12, Day 18): 926 mm^3 | Tumor Average Size ([2]; 0.1 mg 19D12, Day 0): 74 mm^3 | Tumor Average Size ([2]; 0.1 mg 19D12, Day 4): 126 mm^3 | Tumor Average Size ([2]; 0.1 mg 19D12, Day 7): 232 mm^3 | Tumor Average Size ([2]; 0.1 mg 19D12, Day 11): 372 mm^3 | Tumor Average Size ([2]; 0.1 mg 19D12, Day 14): 520 mm^3 | Tumor Average Size ([2]; 0.1 mg 19D12, Day 18): 681 mm^3 | Tumor Average Size ([2]; 1 mg 19D12, Day 0): 75 mm^3 | Tumor Average Size ([2]; 1 mg 19D12, Day 4): 103 mm^3 | Tumor Average Size ([2]; 1 mg 19D12, Day 7): 183 mm^3 | Tumor Average Size ([2]; 1 mg 19D12, Day 11): 284 mm^3 | Tumor Average Size ([2]; 1 mg 19D12, Day 14): 442 mm^3 | Tumor Average Size ([2]; 1 mg 19D12, Day 18): 562 mm^3 | Tumor Average Size ([3]; 0.004 mg 19D12, Day 0): 89 mm^3 | Tumor Average Size ([3]; 0.004 mg 19D12, Day 2): 120 mm^3 | Tumor Average Size ([3]; 0.004 mg 19D12, Day 6): 146 mm^3 | Tumor Average Size ([3]; 0.004 mg 19D12, Day 9): 177 mm^3 | Tumor Average Size ([3]; 0.004 mg 19D12, Day 13): 212 mm^3 | Tumor Average Size ([3]; 0.004 mg 19D12, Day 16): 235 mm^3 | Tumor Average Size ([3]; 0.004 mg 19D12, Day 20): 292 mm^3 | Tumor Average Size ([3]; 0.004 mg 19D12, Day 23): 331 mm^3 | Tumor Average Size ([3]; 0.004 mg 19D12, Day 24): 331 mm^3 | Tumor Average Size ([3]; 0.02 mg 19D12, Day 0): 97 mm^3 | Tumor Average Size ([3]; 0.02 mg 19D12, Day 2): 122 mm^3 | Tumor Average Size ([3]; 0.02 mg 19D12, Day 6): 151 mm^3 | Tumor Average Size ([3]; 0.02 mg 19D12, Day 9): 189 mm^3 | Tumor Average Size ([3]; 0.02 mg 19D12, Day 13): 222 mm^3 | Tumor Average Size ([3]; 0.02 mg 19D12, Day 16): 248 mm^3 | Tumor Average Size ([3]; 0.02 mg 19D12, Day 20): 292 mm^3 | Tumor Average Size ([3]; 0.02 mg 19D12, Day 23): 344 mm^3 | Tumor Average Size ([3]; 0.02 mg 19D12, Day 24): 344 mm^3 | Tumor Average Size ([3]; 0.1 mg 19D12, Day 0): 89 mm^3 | Tumor Average Size ([3]; 0.1 mg 19D12, Day 2): 115 mm^3 | Tumor Average Size ([3]; 0.1 mg 19D12, Day 6): 144 mm^3 | Tumor Average Size ([3]; 0.1 mg 19D12, Day 9): 193 mm^3 | Tumor Average Size ([3]; 0.1 mg 19D12, Day 13): 226 mm^3 | Tumor Average Size ([3]; 0.1 mg 19D12, Day 16): 245 mm^3 | Tumor Average Size ([3]; 0.1 mg 19D12, Day 20): 282 mm^3 | Tumor Average Size ([3]; 0.1 mg 19D12, Day 23): 335 mm^3 | Tumor Average Size ([3]; 0.1 mg 19D12, Day 24): 335 mm^3 | Tumor Average Size ([3]; 0.5 mg 19D12, Day 0): 83 mm^3 | Tumor Average Size ([3]; 0.5 mg 19D12, Day 2): 107 mm^3 | Tumor Average Size ([3]; 0.5 mg 19D12, Day 6): 133 mm^3 | Tumor Average Size ([3]; 0.5 mg 19D12, Day 9): 173 mm^3 | Tumor Average Size ([3]; 0.5 mg 19D12, Day 13): 210 mm^3 | Tumor Average Size ([3]; 0.5 mg 19D12, Day 16): 234 mm^3 | Tumor Average Size ([3]; 0.5 mg 19D12, Day 20): 264 mm^3 | Tumor Average Size ([3]; 0.5 mg 19D12, Day 23): 317 mm^3 | Tumor Average Size ([3]; 0.5 mg 19D12, Day 24): 317 mm^3 | Mean Tumor size ([4]; 0.02 mg 19D12, Day 0): 98 mm3 | Mean Tumor size ([4]; 0.02 mg 19D12, Day 3): 121 mm3 | Mean Tumor size ([4]; 0.02 mg 19D12, Day 7): 197 mm3 | Mean Tumor size ([4]; 0.02 mg 19D12, Day 10): 272 mm3 | Mean Tumor size ([4]; 0.02 mg 19D12, Day 14): 423 mm3 | Mean Tumor size ([4]; 0.02 mg 19D12, Day 17): 675 mm3 | Mean Tumor size ([4]; 0.1 mg 19D12, Day 0): 96 mm3 | Mean Tumor size ([4]; 0.1 mg 19D12, Day 3): 121 mm3 | Mean Tumor size ([4]; 0.1 mg 19D12, Day 7): 144 mm3 | Mean Tumor size ([4]; 0.1 mg 19D12, Day 10): 231 mm3 | Mean Tumor size ([4]; 0.1 mg 19D12, Day 14): 378 mm3 | Mean Tumor size ([4]; 0.1 mg 19D12, Day 17): 431 mm3 | Mean Tumor size ([4]; 0.1 mg 19D12, Day 21): 1037 mm3 | Mean Tumor size ([4]; 0.5 mg 19D12, Day 0): 96 mm3 | Mean Tumor size ([4]; 0.5 mg 19D12, Day 3): 103 mm3 | Mean Tumor size ([4]; 0.5 mg 19D12, Day 7): 122 mm3 | Mean Tumor size ([4]; 0.5 mg 19D12, Day 10): 115 mm3 | Mean Tumor size ([4]; 0.5 mg 19D12, Day 14): 282 mm3 | Mean Tumor size ([4]; 0.5 mg 19D12, Day 17): 435 mm3 | Mean Tumor size ([4]; 0.5 mg 19D12, Day 21): 890 mm3 | growth inhibition of the osteosarcoma tumor (in words) ([4]; ip twice a week, 0.02, 0.1 or 0.5 mg per mouse, summary of Table 8): marked anti-IGF1R-dependent growth inhibition | Tumor Average Size ([5]; 0.02 mg 19D12, Day 0): 150 mm^3 | Tumor Average Size ([5]; 0.02 mg 19D12, Day 5): 181 mm^3 | Tumor Average Size ([5]; 0.02 mg 19D12, Day 8): 204 mm^3 | Tumor Average Size ([5]; 0.02 mg 19D12, Day 12): 207 mm^3 | Tumor Average Size ([5]; 0.02 mg 19D12, Day 15): 217 mm^3 | Tumor Average Size ([5]; 0.02 mg 19D12, Day 19): 237 mm^3 | Tumor Average Size ([5]; 0.02 mg 19D12, Day 22): 290 mm^3 | Tumor Average Size ([5]; 0.1 mg 19D12, Day 0): 151 mm^3 | Tumor Average Size ([5]; 0.1 mg 19D12, Day 5): 164 mm^3 | Tumor Average Size ([5]; 0.1 mg 19D12, Day 8): 146 mm^3 | Tumor Average Size ([5]; 0.1 mg 19D12, Day 12): 154 mm^3 | Tumor Average Size ([5]; 0.1 mg 19D12, Day 15): 141 mm^3 | Tumor Average Size ([5]; 0.1 mg 19D12, Day 19): 154 mm^3 | Tumor Average Size ([5]; 0.1 mg 19D12, Day 22): 170 mm^3 | Tumor Average Size ([5]; 1 mg 19D12, Day 0): 155 mm^3 | Tumor Average Size ([5]; 1 mg 19D12, Day 5): 161 mm^3 | Tumor Average Size ([5]; 1 mg 19D12, Day 8): 128 mm^3 | Tumor Average Size ([5]; 1 mg 19D12, Day 12): 126 mm^3 | Tumor Average Size ([5]; 1 mg 19D12, Day 15): 118 mm^3 | Tumor Average Size ([5]; 1 mg 19D12, Day 19): 117 mm^3 | Tumor Average Size ([5]; 1 mg 19D12, Day 22): 122 mm^3 | Tumor Average Size ([6]; 0.004 mg 19D12/IgG1, Day 4): 335 mm^3 | Tumor Average Size ([6]; 0.004 mg 19D12/IgG1, Day 7): 568 mm^3 | Tumor Average Size ([6]; 0.004 mg 19D12/IgG1, Day 11): 1314 mm^3 | Tumor Average Size ([6]; 0.004 mg 19D12/IgG1, Day -1): 142 mm^3 | Tumor Average Size ([6]; 0.02 mg 19D12/IgG1, Day 4): 231 mm^3 | Tumor Average Size ([6]; 0.02 mg 19D12/IgG1, Day 7): 307 mm^3 | Tumor Average Size ([6]; 0.02 mg 19D12/IgG1, Day 11): 547 mm^3 | Tumor Average Size ([6]; 0.02 mg 19D12/IgG1, Day -1): 137 mm^3 | Tumor Average Size ([6]; 0.1 mg 19D12/IgG1, Day 4): 249 mm^3 | Tumor Average Size ([6]; 0.1 mg 19D12/IgG1, Day 7): 321 mm^3 | Tumor Average Size ([6]; 0.1 mg 19D12/IgG1, Day 11): 615 mm^3 | Tumor Average Size ([6]; 0.1 mg 19D12/IgG1, Day -1): 135 mm^3 | Tumor Average Size ([6]; 0.5 mg 19D12/IgG1, Day 4): 205 mm^3 | Tumor Average Size ([6]; 0.5 mg 19D12/IgG1, Day 7): 273 mm^3 | Tumor Average Size ([6]; 0.5 mg 19D12/IgG1, Day 11): 492 mm^3 | Tumor Average Size ([6]; 0.5 mg 19D12/IgG1, Day -1): 123 mm^3
